Experimental data from the supplement of paper PMC10126150.
± gives the standard deviation of the averaged measurements.

Tested on: ATP
Test: switch fluorescence ratio, 500 uM ATP over buffer (Cy3 cluster intensity, sum of 5 cycles each) (fold (ratio)); higher = stronger signal-on switching upon ATP binding; sequences stand for … in TCGTCGGCAGCGTCAGATGTGTATAAGAGACAGTTTTTTTTTTTTTTTTTTTTTTTTT…TC
Settings: aptamer strand: ATP DNA aptamer (quencher-CACCTGGGGGAGTATTGCGGAGGAAGG + anchor), 100 nM annealed; ATP concentration: 500 uM
Summary of the method: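 Values give the fluorescence ratio for each switch-domain sequence, averaged from per-cluster ratios of summed target-cycle to summed buffer-cycle Cy3 intensity. The Cy3-labelled switching-strand clusters sat on a modified Illumina MiSeq flow-cell, were annealed to 100 nM quencher-labelled ATP aptamer, and were imaged in selection buffer, then after 15 min with 500 uM ATP at 22 °C. Five cycles ran with NaOH stripping and re-annealing between them, and clusters outside 100-1000 RFU were excluded.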
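Further: ATP exposure 15 min at 22 °C before imaging.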

| Sequence | switch fluorescence ratio |
| --- | --- |
| ACTCCATGCG | 1.155 ± 0.0036 |
| ACTCCGACCG | 1.72 ± 0.14 |
| ACTCCGGGGA | 2.4 ± 0.42 |
| ACTCCTAACC | 1.26 ± 0.047 |
| ACTCCTCGAC | 2.71 ± 0.41 |
| ACTCCTGGTT | 1.01 ± 0.014 |
| ACTCGAGGGG | 1.01 ± 0.041 |
| ACTCGCGGGC | 1.98 ± 0.21 |
| ACTCGGGCTA | 1.59 ± 0.61 |
| ACTCGGGGGA | 1.018 ± 0.0035 |
| ACTCGGGTAA | 1 ± 0.017 |
| ACTCGTTTAT | 0.99 ± 0.013 |
| ACTCTGGGC | 1.17 ± 0.21 |
| ACTCTTATCA | 1.01 ± 0.023 |
| ACTCTTTATA | 1.04 ± 0.035 |
| ACTCTTTTAC | 1.291 ± 0.0056 |
| ACTGAAGATT | 1.0263 ± 0.00089 |
| ACTGACGATG | 1.31 ± 0.018 |
| ACTGAGGCCG | 1.04 ± 0.16 |
| ACTGAGGGCG | 1.02 ± 0.025 |
| ACTGAGGGTA | 1.04 ± 0.027 |
| ACTGAGTAA | 1.01 ± 0.076 |
| ACTGAGTCAT | 1.01 ± 0.034 |
| ACTGAGTTGT | 1.04 ± 0.038 |
| ACTGATTGGC | 1.18 ± 0.18 |

| Sequence | switch fluorescence ratio |
| --- | --- |
| ACTGCATCTA | 1.09 ± 0.033 |
| ACTGCCGGTG | 1.25 ± 0.053 |
| ACTGCCGTAT | 1.01 ± 0.036 |
| ACTGCTTCCT | 1.34 ± 0.051 |
| ACTGGAGGGC | 1.08 ± 0.1 |
| ACTGGGGAGC | 0.985 ± 0.0078 |
| ACTGGGGATA | 0.988 ± 0.047 |
| ACTGGGGATG | 0.963 ± 0.043 |
| ACTGGGTCCT | 0.973 ± 0.015 |
| ACTGGGTGGA | 1.02 ± 0.034 |
| ACTGGGTGGC | 1.01 ± 0.029 |
| ACTGGTATTA | 1.02 ± 0.014 |
| ACTGGTGCAT | 1.04 ± 0.019 |
| ACTGTAGTTT | 1.11 ± 0.07 |
| ACTGTATGTC | 1.03 ± 0.014 |
| ACTGTCGGGC | 1.03 ± 0.025 |
| ACTGTGAATT | 1.02 ± 0.011 |
| ACTGTTAATA | 1.03 ± 0.023 |
| ACTGTTATGT | 1.07 ± 0.022 |
| ACTGTTGGCG | 0.965 ± 0.067 |
| ACTGTTGTGT | 1.06 ± 0.1 |
| ACTGTTGTTG | 1.006 ± 0.01 |
| ACTTAAAAGC | 1 ± 0.019 |
| ACTTAACATT | 1.18 ± 0.056 |
| ACTTAGACAC | 1.095 ± 0.0089 |

| Sequence | switch fluorescence ratio |
| --- | --- |
| ACTTATATAG | 1.012 ± 0.0065 |
| ACTTATGTTG | 0.995 ± 0.024 |
| ACTTATTGGG | 1.03 ± 0.011 |
| ACTTATTGTA | 0.9878 ± 0.0098 |
| ACTTATTTGC | 1.16 ± 0.17 |
| ACTTCACATA | 1.35 ± 0.042 |
| ACTTCAGCAG | 1.12 ± 0.023 |
| ACTTCAGGGG | 1.13 ± 0.1 |
| ACTTCGAGCG | 1.08 ± 0.02 |
| ACTTGACTTG | 1.03 ± 0.018 |
| ACTTGAGTTT | 0.988 ± 0.01 |
| ACTTGATTGT | 1.02 ± 0.094 |
| ACTTGCACTT | 1.22 ± 0.038 |
| ACTTGCGGGC | 1.03 ± 0.021 |
| ACTTGCTATA | 1.06 ± 0.029 |
| ACTTGCTATC | 1.25 ± 0.048 |
| ACTTGGACGC | 1.14 ± 0.044 |
| ACTTGGGCTT | 1.03 ± 0.051 |
| ACTTGGGGTA | 0.992 ± 0.04 |
| ACTTGGGGTG | 1.04 ± 0.013 |
| ACTTGGTCGA | 0.9902 ± 0.0095 |
| ACTTGGTGGG | 0.986 ± 0.049 |
| ACTTGTTCAT | 1.01 ± 0.033 |
| ACTTTAATGA | 1.07 ± 0.018 |
| ACTTTAGCGG | 0.99001 ± 0.0002 |

| Sequence | switch fluorescence ratio |
| --- | --- |
| ACTTTCATGG | 1.01 ± 0.018 |
| ACTTTCCACA | 1.17 ± 0.027 |
| ACTTTGAAGC | 0.996 ± 0.019 |
| ACTTTGAATA | 0.988 ± 0.013 |
| ACTTTGACAT | 1.072 ± 0.0092 |
| ACTTTGAGAT | 1.03 ± 0.012 |
| ACTTTGCTCT | 1.032 ± 0.0064 |
| ACTTTGGAGG | 1.02 ± 0.034 |
| ACTTTGTTGC | 1.01 ± 0.0079 |
| ACTTTGTTTT | 1 ± 0.022 |
| ACTTTTCGGT | 1 ± 0.015 |
| ACTTTTTATG | 0.991 ± 0.035 |
| AGAAAAATAC | 1.49 ± 0.67 |
| AGAAAAATTG | 0.979 ± 0.067 |
| AGAAAAGAA | 1 ± 0.036 |
| AGAAAATATT | 1.004 ± 0.0076 |
| AGAAAATTGG | 1.01 ± 0.03 |
| AGAAAGAAAA | 0.993 ± 0.09 |
| AGAAAGAGGG | 1.002 ± 0.0013 |
| AGAAAGCGTT | 1.02 ± 0.022 |
| AGAAAGGATT | 1.01 ± 0.021 |
| AGAAAGGGCA | 1.04 ± 0.03 |
| AGAAAGGGTG | 1.14 ± 0.074 |
| AGAAAGTTAA | 0.9856 ± 0.0047 |
| AGAAATAGGA | 1.01 ± 0.035 |

| Sequence | switch fluorescence ratio |
| --- | --- |
| AGAAATGACG | 1 ± 0.037 |
| AGAAATTGGG | 0.992 ± 0.028 |
| AGAACAAACC | 1.08 ± 0.018 |
| AGAACGGCCT | 1.01 ± 0.019 |
| AGAAGAAGGC | 0.988 ± 0.022 |
| AGAAGAGGTA | 0.949 ± 0.024 |
| AGAAGATGGT | 0.9827 ± 0.0029 |
| AGAAGCTGGG | 1 ± 0.03 |
| AGAAGGGGAT | 1.01 ± 0.021 |
| AGAAGGGTGG | 0.992 ± 0.043 |
| AGAAGGGTGT | 1.02 ± 0.017 |
| AGAAGGTGTT | 1.07 ± 0.078 |
| AGAAGTCGCG | 0.9551 ± 0.0013 |
| AGAAGTGTTT | 1.022 ± 0.0063 |
| AGAATAAGAC | 1.02 ± 0.085 |
| AGAATCAGGT | 0.9701 ± 0.0014 |
| AGAATCTTGC | 1.167 ± 0.0026 |
| AGAATGAGGG | 0.991 ± 0.041 |
| AGAATGCAGC | 0.995 ± 0.041 |
| AGAATGGAAC | 0.976 ± 0.056 |
| AGAATGGAGG | 0.994 ± 0.025 |
| AGAATGGGCA | 0.989 ± 0.029 |
| AGAATTGCGG | 0.98 ± 0.044 |
| AGAATTGGGG | 0.982 ± 0.027 |
| AGAATTGTAC | 1.05 ± 0.014 |

| Sequence | switch fluorescence ratio |
| --- | --- |
| AGAATTGTGG | 0.9728 ± 0.0027 |
| AGAATTTTCC | 1.08 ± 0.076 |
| AGACAAATGC | 1.19 ± 0.21 |
| AGACAATTAG | 1.01 ± 0.093 |
| AGACACTTAA | 1.04 ± 0.023 |
| AGACAGGGG | 1.04 ± 0.017 |
| AGACCATCGT | 1.01 ± 0.032 |
| AGACCGTGTT | 1.03 ± 0.054 |
| AGACCTAAAG | 1.05 ± 0.069 |
| AGACGATGAG | 0.933 ± 0.026 |
| AGACGATTGG | 0.974 ± 0.076 |
| AGACGGCAGC | 0.992 ± 0.035 |
| AGACGGGGGT | 0.997 ± 0.028 |
| AGACGGTCAA | 1.08 ± 0.032 |
| AGACGTCGGG | 1.016 ± 0.0031 |
| AGACGTTTAA | 1.002 ± 0.0035 |
| AGACTAGGCT | 1.02 ± 0.018 |
| AGACTATGAG | 1.03 ± 0.034 |
| AGACTGGTAC | 1.156 ± 0.0022 |
| AGACTTCAGC | 1.04 ± 0.022 |
| AGAGAAGAT | 0.988 ± 0.026 |
| AGAGAATGG | 0.951 ± 0.023 |
| AGAGAGAGGT | 0.992 ± 0.045 |
| AGAGAGCCGT | 1.06 ± 0.031 |
| AGAGAGCTTT | 1.01 ± 0.021 |

| Sequence | switch fluorescence ratio |
| --- | --- |
| AGAGATTCGG | 1.012 ± 0.01 |
| AGAGATTGTT | 0.94745 ± 0.00025 |
| AGAGCAATTG | 1.19 ± 0.014 |
| AGAGCATATG | 1.02 ± 0.017 |
| AGAGCATGGG | 0.971 ± 0.016 |
| AGAGCTAAGT | 0.982 ± 0.027 |
| AGAGCTGGGT | 1.02 ± 0.02 |
| AGAGCTTGAT | 1 ± 0.036 |
| AGAGGAAGGG | 0.993 ± 0.01 |
| AGAGGAAGGT | 1.03 ± 0.046 |
| AGAGGATGTG | 1.01 ± 0.033 |
| AGAGGCATCG | 0.9941 ± 0.005 |
| AGAGGCCAGG | 1.0973 ± 0.00031 |
| AGAGGCTGTG | 1.01 ± 0.038 |
| AGAGGGAAGG | 0.959 ± 0.014 |
| AGAGGGATAC | 1.07 ± 0.035 |
| AGAGGGCGGG | 0.98 ± 0.031 |
| AGAGGGCTAT | 0.989 ± 0.038 |
| AGAGGGGGCG | 1.01 ± 0.039 |
| AGAGGGGTTA | 1.01 ± 0.056 |
| AGAGGGTGCG | 0.934 ± 0.041 |
| AGAGGGTGGG | 0.994 ± 0.04 |
| AGAGGGTTGC | 0.978 ± 0.029 |
| AGAGGTAGGA | 0.979 ± 0.016 |
| AGAGGTAGTA | 1.017 ± 0.0066 |

| Sequence | switch fluorescence ratio |
| --- | --- |
| AGAGGTATAC | 0.969 ± 0.011 |
| AGAGGTCCGA | 0.991 ± 0.037 |
| AGAGGTTATG | 0.986 ± 0.041 |
| AGAGGTTTGG | 0.9944 ± 0.0051 |
| AGAGTAAAGT | 0.98 ± 0.015 |
| AGAGTAGGGA | 0.989 ± 0.02 |
| AGAGTATTAA | 0.9824 ± 0.004 |
| AGAGTCACGG | 0.982 ± 0.024 |
| AGAGTCAGCA | 1.02 ± 0.021 |
| AGAGTCGTCA | 0.965 ± 0.0068 |
| AGAGTCGTGC | 0.997 ± 0.051 |
| AGAGTGCCTG | 1.04 ± 0.058 |
| AGAGTGTATG | 1.006 ± 0.0086 |
| AGAGTGTTGG | 0.985 ± 0.034 |
| AGAGTTAGGT | 1.021 ± 0.0047 |
| AGAGTTATTG | 0.998 ± 0.018 |
| AGAGTTCCGG | 1 ± 0.029 |
| AGAGTTTCTT | 0.981 ± 0.038 |
| AGATAAAAGG | 0.998 ± 0.015 |
| AGATAAAGGT | 0.995 ± 0.057 |
| AGATAAATCA | 0.978 ± 0.033 |
| AGATAATTCT | 1.02 ± 0.013 |
| AGATAATTTG | 0.99459 ± 0.00061 |
| AGATAATTTT | 0.988 ± 0.014 |
| AGATACTTGA | 1.01 ± 0.014 |
